Experimental findings from patent US20180185504A1 (Regeneron, published 2018) are described below.

For assay [1], the target named is T1, human prolactin receptor (PRLR) (human, UniProt P16471 25-622).
T1 sequence: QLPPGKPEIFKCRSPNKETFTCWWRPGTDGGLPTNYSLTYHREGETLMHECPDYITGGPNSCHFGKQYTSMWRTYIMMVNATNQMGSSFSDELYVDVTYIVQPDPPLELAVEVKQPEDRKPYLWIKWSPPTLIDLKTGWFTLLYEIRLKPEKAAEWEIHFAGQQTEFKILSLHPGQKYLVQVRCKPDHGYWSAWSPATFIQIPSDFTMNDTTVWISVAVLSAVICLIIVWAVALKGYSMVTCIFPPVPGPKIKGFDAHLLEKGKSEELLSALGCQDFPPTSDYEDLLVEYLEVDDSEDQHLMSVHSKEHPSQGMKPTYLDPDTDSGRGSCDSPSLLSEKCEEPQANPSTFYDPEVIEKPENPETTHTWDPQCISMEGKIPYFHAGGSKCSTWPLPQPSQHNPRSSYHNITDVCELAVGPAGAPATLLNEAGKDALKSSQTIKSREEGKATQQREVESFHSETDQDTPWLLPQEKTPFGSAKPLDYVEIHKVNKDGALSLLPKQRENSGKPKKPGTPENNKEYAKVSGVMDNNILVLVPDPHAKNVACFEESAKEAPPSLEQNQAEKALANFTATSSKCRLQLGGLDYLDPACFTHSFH
Briefly: cell-based or functional assay.

Assay [2] addresses T1, human prolactin receptor (PRLR). Put plainly: cell-based or functional assay. This is another data set of the same source.
The target of assay [3] is T2, macaca fascicularis (mf) PRLR.mmh (soluble monomeric monkey PRLR) (Macaca fascicularis).
T2 construct: called soluble monomeric PRLR protein
T2 chain: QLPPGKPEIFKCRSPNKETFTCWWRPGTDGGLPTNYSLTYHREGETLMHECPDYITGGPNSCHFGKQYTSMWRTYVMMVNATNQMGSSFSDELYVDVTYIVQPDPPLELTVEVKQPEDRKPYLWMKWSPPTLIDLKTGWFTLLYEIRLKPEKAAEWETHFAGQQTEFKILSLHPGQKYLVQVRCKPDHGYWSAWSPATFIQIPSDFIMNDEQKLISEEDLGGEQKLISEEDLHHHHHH
Put plainly: SPR Biacore, 25 C, mAb capture. The procedure:
(§1) Measurements were conducted on a T200 Biacore instrument. Kinetic association (kₐ) and dissociation (kd) rate constants were determined by processing and fitting the data to a 1:1 binding model using Scrubber 2.0 curve fitting software.

For assay [4], the target named is T3, hPRLR.mmh (soluble monomeric human PRLR) (human).
T3 construct: called soluble monomeric PRLR protein
T3 chain: T2 chain with V76I, T110A, M125I, T158I, I207T
Briefly: SPR Biacore, 25 C, mAb capture. The procedure: as §1

In assay [5] the target is T4, hPRLR.mFc (soluble dimeric human PRLR) (human).
T4 construct: dimeric PRLR construct
T4 chain: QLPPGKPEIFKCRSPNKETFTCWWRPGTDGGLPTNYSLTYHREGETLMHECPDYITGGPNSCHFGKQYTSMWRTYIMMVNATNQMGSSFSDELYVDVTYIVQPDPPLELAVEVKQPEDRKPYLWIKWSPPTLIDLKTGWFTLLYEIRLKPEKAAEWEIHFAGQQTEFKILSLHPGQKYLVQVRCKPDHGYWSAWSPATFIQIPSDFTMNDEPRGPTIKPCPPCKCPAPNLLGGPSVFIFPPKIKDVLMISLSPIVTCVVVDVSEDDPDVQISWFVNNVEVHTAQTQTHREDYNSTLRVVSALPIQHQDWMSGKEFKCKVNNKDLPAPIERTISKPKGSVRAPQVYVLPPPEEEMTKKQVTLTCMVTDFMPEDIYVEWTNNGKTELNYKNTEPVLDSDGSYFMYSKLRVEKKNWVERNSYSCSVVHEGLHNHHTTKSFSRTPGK
Put plainly: SPR Biacore, 25 C, mAb capture. Here is the method: as §1

Residue numbers refer to the chain shown, from its start. In names and notes the source's numbering stands.

B1: H1H6803P-DM1 (antibody, human IgG1, V domains shown)
VH: EVQLVESGGGVVRPGGSLRLSCAASGFKFDDYGMTWVRHVPGKGLEWVSGINWNGGRTGYTDSVKGRFTISRDNAKNSLYLQMNSLRAEDTALYHCAGARRDAFDIWGQGTMVTVSS
VL: DIQMTQSPSSLSASIGDRVTITCRASQNIIKYLNWYQQNAGKAPKLLIYTASSLQSGVPSRFSGSGSGTDFTLTISSLQPEDFATYYCQQSSSSPYTFGQGTKLEIK
modifications: DM1 conjugated through SMCC linker; attachment residues not stated
For the molecule B1, in assay [1], the “% Kill, PC3/PRLR cells” value was 70% and the “IC50, cell viability, PC3/PRLR cells” value amounted to 2.32 nM. Further, in assay [2], the “% Kill, MCF7/PRLR cells” value came to 84%; the “% Kill, MCF7 cells” value was determined as 60%; the “% Kill, T47D cells” value turned out to be 77%; the “IC50, cell viability, MCF7/PRLR cells” value was found to be 0.44 nM. Also, in assay [2], the “IC50, cell viability, MCF7 cells” value amounted to 150 nM and the “IC50, cell viability, T47D cells” value stood at 8.61 nM.

B2: H1H6793P-DM1 (antibody, human IgG1, V domains shown)
VH: EVQLVESGGGLVQPGGSLRLSCAASGFSFSIYAMSWFRQAPGKGLEWVSAINGRGDGTHYADSVKGRFTISRDNSKTTLYLQMSSLRAEDTAVYYCAKPVMSTNGFDIWGQGTMVTVSS
VL: DIQMTQSPSTLSASVGDRVTITCRASQSISSWLAWYQLKPGKAPKLLIYKASNLESGVPSRFSGSGSGTEFTLTISSLQPDDFATYYCQQYNIYWTFGQGTKVEIK
modifications: DM1 conjugated through SMCC linker; attachment residues not stated
Turning to B2, in assay [1], the “% Kill, PC3/PRLR cells” value turned out to be 65% and the “IC50, cell viability, PC3/PRLR cells” value worked out at 3.65 nM. In addition, in assay [2], the “% Kill, MCF7/PRLR cells” value amounted to 87%; the “% Kill, MCF7 cells” value was found to be 67%; the “% Kill, T47D cells” value was determined as 53%; the “IC50, cell viability, MCF7/PRLR cells” value turned out to be 0.54 nM. In assay [2], the “IC50, cell viability, MCF7 cells” value came out at 125 nM and the “IC50, cell viability, T47D cells” value turned out to be 11.1 nM.

B3: H1H6762P-DM1 (antibody, human IgG1, V domains shown)
VH: QVQLVESGGGVVQPGRSLRLSCAASGFTFSHYGMVWVRQPPGKGLEWVALISFDGTTKYYADSVKGRFTISRDNSKNTLYLQMNSLRAEDTAVYFCVGAIAAAAFDLWGRGTLVTVSS
VL: EIVMTQSPATLSVSPGERATLSCRASQSVSSDLAWYQQKPGQAPRLLIYSASARATGIPARFTGSGSGTDFTLTISSLQSEDFAVYYCQQYNNWPMYTFGQGTKLEIK
modifications: DM1 conjugated through SMCC linker; attachment residues not stated
For the molecule B3, in assay [1], the “% Kill, PC3/PRLR cells” value is 66% and the “IC50, cell viability, PC3/PRLR cells” value is 0.98 nM. For the same molecule, in assay [2], the “% Kill, MCF7/PRLR cells” value was 83%; the “% Kill, MCF7 cells” value amounted to 64%; the “% Kill, T47D cells” value was determined as 80%; the “IC50, cell viability, MCF7/PRLR cells” value came out at 0.46 nM. In addition, in assay [2], the “IC50, cell viability, MCF7 cells” value was 110 nM and the “IC50, cell viability, T47D cells” value stood at 12.6 nM.

B4: H1H6800P-DM1 (antibody, human IgG1, V domains shown)
VH: EVQLVESGGGLVQPGRSLRLSCAASGFTFDGYAMHWVRQGPGKGLEWVSGISWYSDTLGYADSVKGRFTISRDNAKNSLYLQMNSLRTEDTAFYYCAKISSSGWAFDYWGQGTLVTVSS
VL: EIVLTQSPGTLSLSPGERATLSCRASHSVSSAYLAWYQQKPGQTPRLLIYGTSSRATGIPDRFSGSGSGTDFTLTISRLEPEDFAVYYCQQYGSSPLFTFGPGTKVDIK
modifications: DM1 conjugated through SMCC linker; attachment residues not stated
On to B4, for which, in assay [1], the “% Kill, PC3/PRLR cells” value was determined as 68% and the “IC50, cell viability, PC3/PRLR cells” value is 1.37 nM. In addition, in assay [2], the “% Kill, MCF7/PRLR cells” value was found to be 85%; the “% Kill, MCF7 cells” value came to 65%; the “% Kill, T47D cells” value came out at 79%; the “IC50, cell viability, MCF7/PRLR cells” value worked out at 0.4 nM. For the same molecule, in assay [2], the “IC50, cell viability, MCF7 cells” value worked out at 150 nM and the “IC50, cell viability, T47D cells” value was determined as 3.2 nM.

B5: H1H6960N-DM1 (antibody, human IgG1, V domains shown)
VH: EVQLVESGGGLVKPGGSLRLSCAASGITFSSYSMNWVRQAPGKGLEWVSSISTRSSLIHYADSVKGRFTISRDNAKNSLYLQMNSLRDEDTAVYYCARWDAAAAFDYWGQGTLVIVSS
VL: DIQLTQSPSFLSASVGDRVTITCWASQGISSYLAWYQQKPGKAPKLLIYVASTLQSGVPSRFSGSGSGTEFTLTISSLQPEDFATYFCQQLNSYPLTFGGGTKVEIK
modifications: DM1 conjugated through SMCC linker; attachment residues not stated
Regarding B5, in assay [1], the “% Kill, 293/PRLR cells” value amounted to 95%; the “% Kill, PC3/PRLR cells” value stood at 82%; the “IC50, cell viability, 293/PRLR cells” value was 0.38 nM; the “IC50, cell viability, PC3/PRLR cells” value is 1.13 nM. Besides, in assay [2], the “% Kill, MCF7/PRLR cells” value is 78%; the “% Kill, MCF7 cells” value came to 77%; the “% Kill, T47D cells” value was 71%; the “IC50, cell viability, MCF7/PRLR cells” value came out at 0.29 nM. For the same molecule, in assay [2], the “IC50, cell viability, MCF7 cells” value turned out to be 100 nM and the “IC50, cell viability, T47D cells” value was 5.1 nM.

B6: H1H6960N (antibody, human IgG1, V domains shown)
VH: B5 VH
VL: B5 VL
notes: Tested with human IgG1 Fc (H1H); also called H2M6960N
B6: in assay [3], the equilibrium dissociation constant (Kd) is 6.2 nM, the T½ came to 19.8 min, the koff worked out at 0.000583 s⁻¹ and the kon is 94000 M⁻¹ s⁻¹. In assay [4], this molecule registered a Kd of 6.74 nM, a T½ of 15.8 min, a dissociation rate constant (koff) of 0.000729 s⁻¹ and an on-rate (kon) of 108000 M⁻¹ s⁻¹. Besides, in assay [5], the Kd was determined as 0.141 nM, the T½ was determined as 324 min, the koff worked out at 3.56e-05 s⁻¹ and the kon stood at 252000 M⁻¹ s⁻¹.

B7: H1H6959N2-DM1 (antibody, human IgG1, V domains shown)
VH: EVQLVESGGGLVQPGRSLRLSCAASGFTFDDYAMHWVRQAPGKGLEWVSGISWHSGIIGYADSVKGRFTISRDNAKNSLYLQMNSLRTEDAALYYCAKIGSYFYFDSWGQGTLVTVSS
VL: EIVLTQSPGTLSLSPGERATLSCRASQSVSSNYLAWYQQKPGQAPRLLIYGASSRATGIPDRFSGSGSGTDFTLTISRLEPEDFAVYYCQQFGSSGYTFGQGTNLEIK
modifications: DM1 conjugated through SMCC linker; attachment residues not stated
B7: in assay [1], the “% Kill, 293/PRLR cells” value stood at 95%; the “% Kill, PC3/PRLR cells” value stood at 82%; the “IC50, cell viability, 293/PRLR cells” value stood at 4.82 nM; the “IC50, cell viability, PC3/PRLR cells” value was 11.6 nM. In assay [2], the “% Kill, MCF7/PRLR cells” value was found to be 80%; the “% Kill, MCF7 cells” value was 82%; the “% Kill, T47D cells” value came to 71%; the “IC50, cell viability, MCF7/PRLR cells” value was 0.47 nM. For the same molecule, in assay [2], the “IC50, cell viability, MCF7 cells” value is 100 nM and the “IC50, cell viability, T47D cells” value came to 48.9 nM.

B8: H1H6959N2 (antibody, human IgG1, V domains shown)
VH: B7 VH
VL: B7 VL
notes: Tested with human IgG1 Fc (H1H); also called H2M6959N2
Consider B8, for which, in assay [3], the affinity, expressed as Kd, was 129 nM; the T½ worked out at 0.7 min; the koff is 0.0167 s⁻¹; the on-rate (kon) was determined as 129000 M⁻¹ s⁻¹. Further, in assay [4], the Kd was 202 nM, the T½ worked out at 0.3 min, the koff worked out at 0.036 s⁻¹ and the kon is 179000 M⁻¹ s⁻¹. In assay [5], the affinity, expressed as Kd, was 1.45 nM; the T½ was found to be 22.3 min; the off-rate constant (koff) stood at 0.000518 s⁻¹; the kon was found to be 359000 M⁻¹ s⁻¹.

B9: H1H6958N2 (antibody, human IgG1, V domains shown)
VH: QVQLVESGGGVVQPGRSLRLSCGASGFTFRNYGMQWVRQGPGKGLEWVTLISFDGNDKYYADSVKGRFTISRDNSKNTLFLQMNSLRTEDTAVYYCARGGDFDYWGQGTLVTVSS
VL: DIQMTQSPSSLSASVGDRVTITCRASQDIRKDLGWYQQKPGKAPKRLIYAASSLHSGVPSRFSGSGSGTEFTLTISSLQPEDFATYYCLQHNSYPMYTFGQGTKLEIK
notes: Tested with human IgG1 Fc (H1H); also called H2M6958N2
In assay [3], B9 had a dissociation constant Kd of 1.44 nM, a T½ of 41.3 min, a koff of 0.00028 s⁻¹ and an on-rate (kon) of 195000 M⁻¹ s⁻¹. Moreover, in assay [4], the equilibrium dissociation constant (Kd) was 1.17 nM, the T½ worked out at 42.5 min, the koff was found to be 0.000272 s⁻¹ and the on-rate (kon) was determined as 233000 M⁻¹ s⁻¹. In assay [5], this molecule yielded a dissociation constant (Kd) of 0.0867 nM, a T½ of 316 min, a koff of 3.66e-05 s⁻¹ and an on-rate constant (kon) of 422000 M⁻¹ s⁻¹.
